Experimental data taken from patent US20210130436A1 (published 2021).
Where a chain is given by its changes, count along the chain named. Names and notes keep the numbering of the source. Values belong to the binder of their own block, whether it stands above or below them.

Tests used:
human PD-L1 [1] = biological target: T1, human PD-L1 (human, UniProt Q9NZQ7 19-290); assay: flow cytometry, CHO cells stably expressing huPD-L1, 33.3 nM, PE anti-human Fc
T1 construct: whole, on cells; also called huPD-L1
T1 sequence (Q9NZQ7 19-290): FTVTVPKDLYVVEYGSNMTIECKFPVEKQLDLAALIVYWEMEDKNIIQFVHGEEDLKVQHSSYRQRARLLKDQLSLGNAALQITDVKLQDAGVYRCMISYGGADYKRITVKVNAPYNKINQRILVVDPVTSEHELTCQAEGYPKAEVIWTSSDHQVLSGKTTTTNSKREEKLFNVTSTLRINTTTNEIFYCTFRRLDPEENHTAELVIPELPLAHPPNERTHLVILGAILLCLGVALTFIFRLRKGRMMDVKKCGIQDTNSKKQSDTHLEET

human PD-L1 [2] = biological target: T1, human PD-L1; assay: flow cytometry; MFI on CHO/PD-L1 over MFI on Jurkat (CD28), 33.3 nM
human CTLA-4 [3] = biological target: T2, human CTLA-4 (human, UniProt P16410 36-223); assay: flow cytometry, CHO cells stably expressing huCTLA4, 33.3 nM, PE anti-human Fc
T2 construct: whole, on cells; also called huCTLA4
T2 sequence (P16410 36-223): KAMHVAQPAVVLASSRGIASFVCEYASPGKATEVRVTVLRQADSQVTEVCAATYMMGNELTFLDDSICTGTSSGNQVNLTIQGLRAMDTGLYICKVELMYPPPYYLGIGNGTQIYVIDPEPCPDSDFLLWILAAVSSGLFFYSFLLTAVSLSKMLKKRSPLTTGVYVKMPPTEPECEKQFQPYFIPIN

[4] = biological target: T3, CD28, endogenously expressed on Jurkat/IL2 reporter cells (human, UniProt P10747 19-220); assay: flow cytometry, Jurkat/IL2 reporter cells (endogenous CD28)
T3 construct: whole, on cells

[5] = biological target: T4, human CTLA4 (huCTLA4), full-length, stably expressed on CHO cells (human, UniProt P16410 36-223); assay: flow cytometry, CHO cells expressing huCTLA4; MFI against WT CD80 of the table
T4 construct: whole, on cells

[6] = biological target: T5, human PD-L1 (huPD-L1), full-length, stably expressed on CHO cells (human, UniProt Q9NZQ7 19-290); assay: flow cytometry, CHO cells expressing huPD-L1
T5 construct: whole, on cells

[7] = biological target: T5, human PD-L1 (huPD-L1), full-length, …; assay: flow cytometry, CHO cells expressing huPD-L1; MFI against WT CD80 of the table
[8] = biological target: T5, human PD-L1 (huPD-L1), full-length, …; assay: flow cytometry; MFI on PD-L1 CHO cells over MFI on Jurkat cells (CD28)
[9] = biological target: T4, human CTLA4 (huCTLA4), full-length, …; assay: flow cytometry, CHO cells expressing huCTLA4
[10] = biological target: T3, CD28, endogenously expressed on …; assay: flow cytometry, Jurkat/IL2 reporter cells (endogenous CD28); MFI against WT CD80 of the table
human CD28 [11] = biological target: T6, human CD28 (human, UniProt P10747 19-220); assay: flow cytometry, Jurkat/IL2 reporter cells (endogenous CD28), 33.3 nM, PE anti-human Fc
T6 construct: whole, on cells; Endogenous CD28 of Jurkat/IL2 reporter cells

human CTLA-4 [12] = biological target: T7, human CTLA-4 (human, UniProt P16410 36-223); assay: flow cytometry on CHO cells stably expressing CTLA4
T7 construct: also called huCTLA4
T7 sequence (P16410 36-223): as above

human CD28 [13] = biological target: T8, human CD28 (human, UniProt P10747 19-220); assay: flow cytometry on Jurkat cells (CD28); vs CD80 WT IgV-Fc
T8 construct: Endogenous CD28 on Jurkat/IL2 reporter cells

human PD-L1 [14] = biological target: T9, human PD-L1 (human, UniProt Q9NZQ7 19-290); assay: cell-based or functional assay
T9 sequence (Q9NZQ7 19-290): as the sequence (Q9NZQ7 19-290) above

human PD-L1 [15] = biological target: T9, human PD-L1; assay: flow cytometry on CHO cells stably expressing PD-L1
human PD-L1 [16] = biological target: T9, human PD-L1; assay: flow cytometry on CHO cells stably expressing PD-L1; vs CD80 WT IgV-Fc
human CTLA-4 [17] = biological target: T7, human CTLA-4; assay: flow cytometry on CHO cells stably expressing CTLA4; vs CD80 WT IgV-Fc
human CD28 [18] = biological target: T8, human CD28; assay: flow cytometry on Jurkat cells (CD28)
human PD-L1 [19] = biological target: T9, human PD-L1; assay: flow cytometry; PD-L1 MFI over CD28 MFI

T5 sequence (Q9NZQ7 19-290): as above
T4 sequence (P16410 36-223): as the sequence (P16410 36-223) above

B4: H18Y/V22A/E35D/T41S/M47V/T62N/A71G/A91G CD80 IgV-Fc (Fc fusion, not shown: a dimerising Fc or GST)
chain: VIHVTKEVKEVATLSCGYNVSAEELAQTRIYWQKDKKMVLSMMSGDVNIWPEYKNRTIFDINNNLSIVILGLRPSDEGTYECVVLKYEKDGFKREHLAEVTLSVKAD
- Fold change to WT (human CD28 [11]): 38.5 fold
- MFI at 33.3 nM (human CD28 [11]): 1590 MFI
- Fold change to WT (human PD-L1 [1]): 101 fold
- MFI at 33.3 nM (human PD-L1 [1]): 8460 MFI
- Ratio of PDL1:CD28 (human PD-L1 [2]): 5 ratio
- Fold change to WT CD80 (human CTLA-4 [3]): 10 fold
- MFI at 33.3 nM (human CTLA-4 [3]): 10300 MFI

B6: E35D/M47L/V68M/A71G/L85Q/D90G CD80 IgV-Fc (Fc fusion, not shown: a dimerising Fc or GST)
chain: B4 chain with Y18H, A22V, S41T, V47L, N62T, V68M, L85Q, D90G, G91A
- Fold change to WT (human CD28 [11]): 33.9 fold
- MFI at 33.3 nM (human CD28 [11]): 1400 MFI
- Fold change to WT (human PD-L1 [1]): 202 fold
- MFI at 33.3 nM (human PD-L1 [1]): 16800 MFI
- Ratio of PDL1:CD28 (human PD-L1 [2]): 12 ratio
- Fold change to WT CD80 (human CTLA-4 [3]): 10.1 fold
- MFI at 33.3 nM (human CTLA-4 [3]): 10300 MFI

B7: CD80 E35D/M47V/N48K/V68M/K89N IgV-Fc, delta linker (Fc fusion)
chain: VIHVTKEVKEVATLSCGHNVSVEELAQTRIYWQKDKKMVLTMMSGDVKIWPEYKNRTIFDITNNLSIMILALRPSDEGTYECVVLKYENDAFKREHLAEVTLSVKTHTCPPCPAPEAEGAPSVFLFPPKPKDTLMISRTPEVTCVVVDVSHEDPEVKFNWYVDGVEVHNAKTKPREEQYNSTYRVVSVLTVLHQDWLNGKEYKCKVSNKALPAPIEKTISKAKGQPREPQVYTLPPSREEMTKNQVSLTCLVKGFYPSDIAVEWESNGQPENNYKTTPPVLDSDGSFFLYSKLTVDKSRWQQGNVFSCSVMHEALHNHYTQKSLSLSPG
notes: Fused directly to the Fc with no additional linker; also called E35D/M47V/N48K/V68M/K89N delta
- MFI at 33.3 nM (human CTLA-4 [12]): 3090 MFI
- Fold change to WT CD80 (human CD28 [13]): 83.7 fold
- Fold Increase over WT CD80-IgV-Fc, Jurkat/IL2 + CHO/OKT3/PD-L1 Reporter Assay (human PD-L1 [14]): 2.63 fold
- RLU, Jurkat/IL2 + CHO/OKT3/PD-L1 Reporter Assay, CD80 Conc 5.0 nM (human PD-L1 [14]): 1030 RLU
- MFI at 33.3 nM (human PD-L1 [15]): 20400 MFI
- Fold change to WT CD80 (human PD-L1 [16]): 439 fold
- Fold change to WT CD80 (human CTLA-4 [17]): 2.6 fold
- MFI at 33.3 nM (human CD28 [18]): 4680 MFI
- Ratio of PDL1:CD28 (human PD-L1 [19]): 4 ratio

Results, then the binder that gave them:

- Fold change to WT (human PD-L1 [1]): 158 fold
- MFI at 33.3 nM (human PD-L1 [1]): 13200 MFI
- Ratio of PDL1:CD28 (human PD-L1 [2]): 863 ratio
- Fold change to WT CD80 (human CTLA-4 [3]): 0.2 fold
- MFI at 33.3 nM (human CTLA-4 [3]): 214 MFI
B1: E35D/D46E/M47L/V68M/L85Q/F92L CD80 IgV-Fc (Fc fusion, not shown: a dimerising Fc or GST)
chain: VIHVTKEVKEVATLSCGHNVSVEELAQTRIYWQKDKKMVLTMMSGELNIWPEYKNRTIFDITNNLSIMILALRPSDEGTYECVVQKYEKDALKREHLAEVTLSVKAD

- MFI at 33.3 nM [4]: 476 MFI
- Fold change to WT CD80 [5]: 10.5 fold
- MFI at 33.3 nM [6]: 14800 MFI
- Fold change to WT CD80 [7]: 287 fold
- Ratio of PDL1:CD28 [8]: 31.1 ratio
- MFI at 33.3 nM [9]: 18400 MFI
- Fold change to WT CD80 [10]: 15.2 fold
B2: variant CD80 IgV-Fc E35D/T41S/D46E/M47I/V68M/K93R/E95V (Fc fusion, not shown: small tags and cut ends; a dimerising Fc or GST)
chain: B1 chain with T41S, L47I, Q85L, L92F, K93R, E95V

- Fold change to WT (human PD-L1 [1]): 146 fold
- MFI at 33.3 nM (human PD-L1 [1]): 12200 MFI
- Ratio of PDL1:CD28 (human PD-L1 [2]): 719 ratio
- Fold change to WT CD80 (human CTLA-4 [3]): 0.3 fold
- MFI at 33.3 nM (human CTLA-4 [3]): 308 MFI
B3: Q33R/M47V/T62N/A71G CD80 IgV-Fc (Fc fusion, not shown: a dimerising Fc or GST)
chain: B4 chain with Y18H, A22V, Q33R, D35E, S41T, G91A

- Fold change to WT (human CD28 [11]): 25.9 fold
- MFI at 33.3 nM (human CD28 [11]): 1070 MFI
- Fold change to WT (human PD-L1 [1]): 166 fold
- MFI at 33.3 nM (human PD-L1 [1]): 13900 MFI
- Ratio of PDL1:CD28 (human PD-L1 [2]): 13 ratio
- Fold change to WT CD80 (human CTLA-4 [3]): 10.7 fold
- MFI at 33.3 nM (human CTLA-4 [3]): 11000 MFI
B5: S15T/H18Y/E35D/M47V/T62A/N64S/A71G/L85Q/D90N CD80 IgV-Fc (Fc fusion, not shown: a dimerising Fc or GST)
chain: B4 chain with S15T, A22V, S41T, N62A, N64S, L85Q, D90N, G91A

- MFI at 33.3 nM (human CTLA-4 [12]): 12200 MFI
- Fold change to WT CD80 (human CD28 [13]): 74.7 fold
- Fold Increase over WT CD80-IgV-Fc, Jurkat/IL2 + CHO/OKT3/PD-L1 Reporter Assay (human PD-L1 [14]): 2.77 fold
- RLU, Jurkat/IL2 + CHO/OKT3/PD-L1 Reporter Assay, CD80 Conc 5.0 nM (human PD-L1 [14]): 1080 RLU
- MFI at 33.3 nM (human PD-L1 [15]): 22500 MFI
- Fold change to WT CD80 (human PD-L1 [16]): 484 fold
- Fold change to WT CD80 (human CTLA-4 [17]): 10.2 fold
- MFI at 33.3 nM (human CD28 [18]): 4170 MFI
- Ratio of PDL1:CD28 (human PD-L1 [19]): 5 ratio
B8: CD80 E35D/D46V/M47L/V68M/L85Q/E88D IgV-Fc, delta linker (Fc fusion)
chain: B7 chain with D46V, V47L, K48N, L85Q, E88D, N89K
notes: Fused directly to the Fc with no additional linker; also called E35D/D46V/M47L/V68M/L85Q/E88D delta
